Biological target: T1, IsdA (iron-regulated surface determinant protein A) (Staphylococcus aureus, UniProt A6QG31 47-316)
T1 sequence: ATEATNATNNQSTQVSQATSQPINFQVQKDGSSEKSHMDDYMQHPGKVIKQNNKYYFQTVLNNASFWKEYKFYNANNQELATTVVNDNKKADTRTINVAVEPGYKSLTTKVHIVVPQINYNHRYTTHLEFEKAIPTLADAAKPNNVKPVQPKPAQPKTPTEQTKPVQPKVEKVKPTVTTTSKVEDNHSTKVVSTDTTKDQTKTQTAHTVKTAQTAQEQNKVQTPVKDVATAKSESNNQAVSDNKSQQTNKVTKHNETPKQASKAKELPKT
Test: cyclic voltammetry and EIS; pH 7.5, 25 °C, 5 mM [Fe(CN)6]3-/4-, 0.1 M KCl; Aptamer (5 µM, 4 h) immobilized on SPCE/AuNPs, 2-MCE block; CV in 5 mM [Fe(CN)6]3-/4-, 0.1 M KCl, pH 7.5 (also 4.5, 10.5), 25 °C (also 4, 37 °C); zeta potential in water, room temperature
Details: label: FAM dye applied in imaging; 1 strand

Q: Does GCGCACGCGUGUGUAGUACACACGAUCGCGCGCACAAUAU (ssRNA, amine for coupling to AuNP carboxyl groups implied; position not stated) [anti-IsdA aptamer] bind?
A: binds

Source: publication PMC11857385, “Parametric Cyclic Voltammetric Analysis of an Electrochemical Aptasensor for Staphylococcus aureus Iron-Regulated Surface Determinant Protein A Detection”
